In PMC12075841:

B1: NONO (Non-POU domain-containing octamer-binding protein): T440A (protein)
parent chain: MQSNKTFNLEKQNHTPRKHHQHHHQQQHHQQQQQQPPPPPIPANGQQASSQNEGLTIDLKNFRKPGEKTFTQRSRLFVGNLPPDITEEEMRKLFEKYGKAGEVFIHKDKGFGFIRLETRTLAEIAKVELDNMPLRGKQLRVRFACHSASLTVRNLPQYVSNELLEEAFSVFGQVERAVVIVDDRGRPSGKGIVEFSGKPAARKALDRCSEGSFLLTTFPRPVTVEPMDQLDDEEGLPEKLVIKNQQFHKEREQPPRFAQPGSFEYEYAMRWKALIEMEKQQQDQVDRNIKEAREKLEMEMEAARHEHQVMLMRQDLMRRQEELRRMEELHNQEVQKRKQLELRQEEERRRREEEMRRQQEEMMRRQQEGFKGTFPDAREQEIRMGQMAMGGAMGINNRGAMPPAPVPAGTPAPPGPATMMPDGTLGLTPPTTERFGQAATMEGIGAIGGTPPAFNRAAPGAEFAPNKRRRY
B2: NONO (Non-POU domain-containing octamer-binding protein): myc-tagged OGT overexpression (protein)
parent chain: B1 parent chain

Legend:
[1] = NONO immunostaining, paraspeckle count per nucleus; settings: glycan lost; control: NONO WT in NONO-KO HCT116
[2] = NONO immunostaining, speckle count, HCT116; settings: glycan gained; control: 5.5 mM glucose, no OGT

Protein | localisation_or_trafficking [1] | localisation_or_trafficking [2]
B1 | decreases | 
B2 |  | increases
